The values below come from publication doi:10.1101/2023.02.25.529910 (bioRxiv, 2023).

Series [1] deals with the molecule itself. Briefly: SEC. Background: Size exclusion chromatography separates by hydrodynamic size, large species first.
Series [2] concerns the molecule itself. Nature of the series: crystal structure.

B1: gpV-AA (full-length bacteriophage P2 gpV, H197A/H199A) (natural protein)
chain: MNTLANIQELARALRNMIRTGIIVETDLNAGRCRVQTGGMCTDWLQWLTHRAGRSRTWWAPSVGEQVLILAVGGELDTAFVLPGIYSGDNPSPSVSADALHIRFPDGAVIEYEPETSALTVSGIKTASVTASGSVTATVPVVMVKASTRVTLDTPEVVCTNRLITGTLEVQKGGTMRGNIEHTGGELSSNGKVLHTAKAPGDSGGTTGSPL
With B1, the binding result in series [1] is listed as “binds”.

B2: gpV-FF (full-length bacteriophage P2 gpV, H197F/H199F) (natural protein)
chain: MNTLANIQELARALRNMIRTGIIVETDLNAGRCRVQTGGMCTDWLQWLTHRAGRSRTWWAPSVGEQVLILAVGGELDTAFVLPGIYSGDNPSPSVSADALHIRFPDGAVIEYEPETSALTVSGIKTASVTASGSVTATVPVVMVKASTRVTLDTPEVVCTNRLITGTLEVQKGGTMRGNIEHTGGELSSNGKVLHTFKFPGDSGGTTGSPL
As for B2, the binding result in series [1] is listed as “binds”.

B3: gpV-DEL (bacteriophage P2 gpV with the Apex domain deleted, ends at Thr196 plus an exogenous Leu197) (domain or fragment)
chain: MNTLANIQELARALRNMIRTGIIVETDLNAGRCRVQTGGMCTDWLQWLTHRAGRSRTWWAPSVGEQVLILAVGGELDTAFVLPGIYSGDNPSPSVSADALHIRFPDGAVIEYEPETSALTVSGIKTASVTASGSVTATVPVVMVKASTRVTLDTPEVVCTNRLITGTLEVQKGGTMRGNIEHTGGELSSNGKVLHTL
Consider B3, for which, in series [1], the binding result was “binds”.

B4: gpVdL-AA (bacteriophage P2 gpV residues 97-211, H197A/H199A) (domain or fragment)
chain: ADALHIRFPDGAVIEYEPETSALTVSGIKTASVTASGSVTATVPVVMVKASTRVTLDTPEVVCTNRLITGTLEVQKGGTMRGNIEHTGGELSSNGKVLHTAKAPGDSGGTTGSPL
As a reminder, the stoichiometry N is the number of molecules, sites or subunits per partner or assembly. As for B4, the “stoichiometry N” value in series [2] was 3.

B5: gpVdL-FF (bacteriophage P2 gpV residues 97-211, H197F/H199F) (domain or fragment)
chain: ADALHIRFPDGAVIEYEPETSALTVSGIKTASVTASGSVTATVPVVMVKASTRVTLDTPEVVCTNRLITGTLEVQKGGTMRGNIEHTGGELSSNGKVLHTFKFPGDSGGTTGSPL
With B5, in series [2], the “stoichiometry N” value was 3.

B6: gpVdL-DEL (bacteriophage P2 gpV residues 97-196 plus an exogenous Leu197, Apex domain deleted) (domain or fragment)
chain: ADALHIRFPDGAVIEYEPETSALTVSGIKTASVTASGSVTATVPVVMVKASTRVTLDTPEVVCTNRLITGTLEVQKGGTMRGNIEHTGGELSSNGKVLHTL
On to B6, for which the binding result in series [2] is on record as “binds”.
